± gives the standard deviation of the averaged measurements.
system: ATP; assay: switch fluorescence ratio, 500 uM ATP over buffer (Cy3 cluster intensity, sum of 5 cycles each) (fold (ratio)); higher = stronger signal-on switching upon ATP binding; sequences stand for … in TCGTCGGCAGCGTCAGATGTGTATAAGAGACAGTTTTTTTTTTTTTTTTTTTTTTTTT…TC; settings: aptamer strand: ATP DNA aptamer (quencher-CACCTGGGGGAGTATTGCGGAGGAAGG + anchor), 100 nM annealed; ATP concentration: 500 uM
How it was run: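 The fluorescence ratio divides summed target-cycle Cy3 intensity by summed buffer-cycle Cy3 intensity for each cluster and is averaged per switch-domain sequence. Cy3-labelled switching-strand clusters on a modified Illumina MiSeq flow-cell were annealed to 100 nM quencher-labelled ATP aptamer, then imaged in selection buffer and again after 15 min with 500 uM ATP at 22 °C. Five such cycles were run, with NaOH stripping and re-annealing between them, and clusters outside 100-1000 RFU were excluded.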
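Also: ATP exposure 15 min at 22 °C before imaging.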

Sequence | switch fluorescence ratio
TGATTCTCGT | 1.02 ± 0.018
TGATTGAAGC | 1.03 ± 0.032
TGATTGAGTT | 1 ± 0.016
TGATTGGCTG | 1.02 ± 0.045
TGATTGGGGG | 0.989 ± 0.031
TGATTGGGTA | 1 ± 0.019
TGATTGGGTG | 1.01 ± 0.054
TGATTGTAAT | 0.9655 ± 0.0069
TGATTGTGCG | 0.957 ± 0.021
TGATTTAGGC | 0.9803 ± 0.009
TGATTTGGCA | 1.02 ± 0.0023
TGATTTGGCT | 1.02 ± 0.031
TGATTTTAAG | 0.999 ± 0.018
TGATTTTAGA | 0.974 ± 0.052
TGATTTTTAT | 1.011 ± 0.0089
TGATTTTTTA | 0.992 ± 0.025
TGCAAAGGGC | 1.01 ± 0.015
TGCAACCTTG | 1.0397 ± 0.0007
TGCAACCTTT | 1.02 ± 0.014
TGCAACGGGT | 1.02 ± 0.018
TGCAACTTTT | 1.01 ± 0.019
TGCAAGAAGG | 0.9832 ± 0.0053
TGCAAGCGAC | 2.61 ± 0.18
TGCAAGTGAA | 0.997 ± 0.053
TGCAAGTTTT | 1.24 ± 0.33

Sequence | switch fluorescence ratio
TGCAATGTAG | 1.082 ± 0.0029
TGCAATTCAG | 1.14 ± 0.012
TGCAATTTTT | 1.04 ± 0.077
TGCACACGTG | 0.9787 ± 0.0068
TGCACCTTGG | 1.014 ± 0.0099
TGCACTGGGA | 1.04 ± 0.034
TGCAGAAGGT | 0.992 ± 0.03
TGCAGATTTC | 0.9978 ± 0.0088
TGCAGCAGGT | 1.18 ± 0.025
TGCAGCATGA | 1.333 ± 0.008
TGCAGCATTA | 2.31 ± 0.19
TGCAGCTGTA | 1.04 ± 0.014
TGCAGGGACG | 1 ± 0.03
TGCAGGGCAA | 1.02 ± 0.044
TGCAGGGCGT | 1.01 ± 0.031
TGCAGGGGTC | 1.02 ± 0.025
TGCAGTCTAG | 1.07 ± 0.15
TGCAGTTTTT | 0.999 ± 0.029
TGCATACGGC | 1.04 ± 0.07
TGCATAGGGA | 1.01 ± 0.035
TGCATGAAGC | 1.034 ± 0.0057
TGCATGATCG | 1.02 ± 0.033
TGCATGGAGC | 0.9946 ± 0.0042
TGCATGGATC | 1.02 ± 0.012
TGCATGGGAG | 1.001 ± 0.0039

Sequence | switch fluorescence ratio
TGCATGTCGC | 0.991 ± 0.025
TGCATTTTGC | 1.08 ± 0.023
TGCCAAATAG | 1.02 ± 0.039
TGCCAATGAA | 0.965 ± 0.02
TGCCAATGGG | 1 ± 0.038
TGCCAGAAGG | 1.021 ± 0.0041
TGCCAGGATT | 1.25 ± 0.42
TGCCAGTTCG | 1.02 ± 0.025
TGCCCGCCCT | 1.08 ± 0.065
TGCCCGCTGC | 1.27 ± 0.017
TGCCCGGACA | 1.01 ± 0.027
TGCCCGGTTT | 1.01 ± 0.0077
TGCCCTTCAT | 1.04 ± 0.011
TGCCGAGGTG | 1.38 ± 0.12
TGCCGGGAAA | 1.01 ± 0.0084
TGCCGGTGGT | 1.01 ± 0.035
TGCCGTGGGT | 0.987 ± 0.04
TGCCTAGTTT | 0.995 ± 0.064
TGCCTTAAGT | 1.01 ± 0.063
TGCGAGGCGT | 0.997 ± 0.021
TGCGAGGGTG | 1.02 ± 0.065
TGCGATACGG | 2.71 ± 0.12
TGCGATGAGG | 1.01 ± 0.046
TGCGCCGGGT | 1.12 ± 0.1
TGCGCGAAAT | 0.995 ± 0.0021

Sequence | switch fluorescence ratio
TGCGCGCTGG | 1 ± 0.041
TGCGCTATGT | 1.07 ± 0.022
TGCGCTTGTC | 0.974 ± 0.082
TGCGGAAAAC | 1.72 ± 0.82
TGCGGATATA | 1.04 ± 0.043
TGCGGGCCAT | 1.027 ± 0.0067
TGCGGGGAGG | 1.01 ± 0.0017
TGCGGGGCTT | 0.997 ± 0.048
TGCGGGGGAG | 0.996 ± 0.02
TGCGGGTCGG | 1.03 ± 0.031
TGCGGTAAGG | 1 ± 0.031
TGCGGTAATT | 1.14 ± 0.16
TGCGGTTGGG | 1.022 ± 0.003
TGCGTGAGGG | 1.04 ± 0.016
TGCGTGTGGT | 1.036 ± 0.0046
TGCGTGTGTC | 1.05 ± 0.024
TGCGTGTTGA | 1.04 ± 0.0081
TGCGTTACAG | 1.01 ± 0.044
TGCGTTAGCC | 1.035 ± 0.0025
TGCGTTGGAG | 1.08 ± 0.057
TGCGTTTATT | 0.994 ± 0.015
TGCGTTTCGA | 1.03 ± 0.025
TGCGTTTGTT | 0.996 ± 0.029
TGCTAGATAA | 1 ± 0.039
TGCTAGCATT | 1.11 ± 0.15

— the supplement of paper PMC10126150
